Test results published in IntAct's records for PubMed 23023224.

B1: Unconventional myosin-VI (Homo sapiens), Q9UM54 (parent)
chain: MEDGKPVWAPHPTDGFQMGNIVDIGPDSLTIEPLNQKGKTFLALINQVFPAEEDSKKDVEDNCSLMYLNEATLLHNIKVRYSKDRIYTYVANILIAVNPYFDIPKIYSSEAIKSYQGKSLGTRPPHVFAIADKAFRDMKVLKMSQSIIVSGESGAGKTENTKFVLRYLTESYGTGQDIDDRIVEANPLLEAFGNAKTVRNNNSSRFGKFVEIHFNEKSSVVGGFVSHYLLEKSRICVQGKEERNYHIFYRLCAGASEDIREKLHLSSPDNFRYLNRGCTRYFANKETDKQILQNRKSPEYLKAGSMKDPLLDDHGDFIRMCTAMKKIGLDDEEKLDLFRVVAGVLHLGNIDFEEAGSTSGGCNLKNKSAQSLEYCAELLGLDQDDLRVSLTTRVMLTTAGGTKGTVIKVPLKVEQANNARDALAKTVYSHLFDHVVNRVNQCFPFETSSYFIGVLDIAGFEYFEHNSFEQFCINYCNEKLQQFFNERILKEEQELYQKEGLGVNEVHYVDNQDCIDLIEAKLVGILDILDEENRLPQPSDQHFTSAVHQKHKDHFRLTIPRKSKLAVHRNIRDDEGFIIRHFAGAVCYETTQFVEKNNDALHMSLESLICESRDKFIRELFESSTNNNKDTKQKAGKLSFISVGNKFKTQLNLLLDKLRSTGASFIRCIKPNLKMTSHHFEGAQILSQLQCSGMVSVLDLMQGGYPSRASFHELYNMYKKYMPDKLARLDPRLFCKALFKALGLNENDYKFGLTKVFFRPGKFAEFDQIMKSDPDHLAELVKRVNHWLTCSRWKKVQWCSLSVIKLKNKIKYRAEACIKMQKTIRMWLCKRRHKPRIDGLVKVGTLKKRLDKFNEVVSVLKDGKPEMNKQIKNLEISIDTLMAKIKSTMMTQEQIQKEYDALVKSSEELLSALQKKKQQEEEAERLRRIQEEMEKERKRREEDEKRRRKEEEERRMKLEMEAKRKQEEEERKKREDDEKRIQAEVEAQLARQKEEESQQQAVLEQERRDRELALRIAQSEAELISDEAQADLALRRSLDSYPVSKNDGTRPKMTPEQMAKEMSEFLSRGPAVLATKAAAGTKKYDLSKWKYAELRDTINTSCDIELLAACREEFHRRLKVYHAWKSKNKKRNTETEQRAPKSVTDYDFAPFLNNSPQQNPAAQIPARQREIEMNRQQRFFRIPFIRPADQYKDPQSKKKGWWYAHFDGPWIARQMELHPDKPPILLVAGKDDMEMCELNLEETGLTRKRGAEILPRQFEEIWERCGGIQYLQNAIESRQARPTYATAMLQSLLK
B2: Unconventional myosin-VI (Homo sapiens), Q9UM54 (parent)
chain: B1 chain
partner: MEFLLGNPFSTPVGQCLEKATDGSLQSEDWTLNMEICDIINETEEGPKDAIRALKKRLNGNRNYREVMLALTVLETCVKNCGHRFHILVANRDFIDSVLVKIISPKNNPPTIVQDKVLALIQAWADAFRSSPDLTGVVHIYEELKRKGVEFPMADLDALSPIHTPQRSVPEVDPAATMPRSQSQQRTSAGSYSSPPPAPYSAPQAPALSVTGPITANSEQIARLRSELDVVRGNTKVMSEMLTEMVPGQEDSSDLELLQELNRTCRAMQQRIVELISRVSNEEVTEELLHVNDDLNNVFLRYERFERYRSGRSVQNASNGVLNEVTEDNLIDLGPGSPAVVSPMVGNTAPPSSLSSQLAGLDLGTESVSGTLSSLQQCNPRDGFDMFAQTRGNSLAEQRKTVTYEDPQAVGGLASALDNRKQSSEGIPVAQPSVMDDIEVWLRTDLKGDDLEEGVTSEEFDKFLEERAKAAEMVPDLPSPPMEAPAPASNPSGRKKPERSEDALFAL

Variants of: B1
Conditions: with TOM1, O60784-1
TOM1, O60784-1, sequence (O60784 whole entry): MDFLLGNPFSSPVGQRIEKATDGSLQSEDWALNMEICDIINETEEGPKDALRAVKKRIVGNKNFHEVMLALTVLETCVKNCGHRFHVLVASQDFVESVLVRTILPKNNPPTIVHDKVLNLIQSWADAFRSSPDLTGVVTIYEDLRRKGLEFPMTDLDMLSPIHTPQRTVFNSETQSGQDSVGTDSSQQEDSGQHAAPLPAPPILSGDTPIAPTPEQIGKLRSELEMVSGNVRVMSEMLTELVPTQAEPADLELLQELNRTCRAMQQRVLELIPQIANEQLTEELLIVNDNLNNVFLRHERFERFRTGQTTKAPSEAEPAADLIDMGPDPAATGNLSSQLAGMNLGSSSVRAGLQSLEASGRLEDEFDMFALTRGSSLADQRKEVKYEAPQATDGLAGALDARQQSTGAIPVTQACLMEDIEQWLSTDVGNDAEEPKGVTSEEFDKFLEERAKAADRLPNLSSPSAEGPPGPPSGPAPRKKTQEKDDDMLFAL

Variant | effect of a mutation on the interaction
W1202L | disrupting interaction strength

Variants of: B2
Conditions: with tm1l2_human TOM1L2, Q6ZVM7

Variant | effect of a mutation on the interaction
W1202L | disrupting interaction strength
